According to a protein production outcome set (Wang et al. 2014):

Experiment: label from the status in PepcDB records

Sequence: MKSNRLIKRLDWYIIKKFLGTYVFAIALIISIAVVFDFNEKMDKLMEHEAPWDKIIFEYYMNFIPYFSNLFSPLFVFIAVIFFTSKLAENSEIIAMFSTGMSFKRMMRPYMISAAIIAAATFMMSSFIIPKGSVTRLNFEDKYIKPKKVNSVRNVQLEVDSGVIAYIDNYNDGMKTGNRFSLDKFVDKKLVSHLTARRITYDTTTVNKWTIHDYMVRELDGLKEKITKGDRIDSIINMDPSDFLIMKNQQEMLTSPELSEYIEKQKRRGFANIKEFEIEYHKRIAMSFASFILTIIGVSLSSRKTKGGMGLHLGIGLGLSFSYILFQTITSTFAINGNVPPAIAVWIPNILYAGIAFYLYQKAPK
- protein production: failed

Sequence: MPAKPIDLGPLHFAKRGDAVAYLNDMLHRYDVGDRVGANDTVILRAALEHHPDAEAKKGCGITHFNVRTADFGTKCFWLNRTDGTTEKFSHRACIYGT
- protein production: failed

Sequence: QNRGSLSTARSYISMGVGRVYVMKDSPNDIELTMAEGVDVGRYVDYRELAIKIADNRIDVKKNKEIINSRFKLKYKNLSSIYN
- protein production: failed

Sequence: QLAEVEVKKFKQMTEAIGPSTIRDLAVAGPEMQVKLLQSLGLKSTLITDGSTPINLFNTAFGLLGMGPEGQPLGRRVASGPSPGEGISPQSAQAPQAPGDNHVVPVLR
- protein production: failed

Sequence: MKKPSSTPAPRLASLDILRGFDLFLLVFFQPVLWTLAHQLNLPWLNSILFQFDHEVWEGFRFWDLVMPLFLFMTGASMPFSFSKFKDNPDKGPVYRKIIKRFILLFIFGMIVQGNLLGLDPKHLYLYSNTLQAIATGYLIAAIIQLHCNFRWQLIVTALLLLIYWIPMTFLGDFTPEGNFAEKVDRLVLGHFRDGVFWNEDGSWSFSAHYNYTWIWSSLTFGATVMLGAFAGKIMKAGKDNRRKVVQTLLIIGISLIAFSLIWSLQMPIIKRLWTSSMTLFSGGLCFLLMGAFYYRIDYKGHSRGLNWLKIYGMNSITAYILGEVINFRCIAASVSYGLEQYLGGYYQVWLSFANYLIVFLILRIMYRQKIFLKI
- protein production: failed

Sequence: HVAGHHLAPTIIAADQHWLLVNWLEGDVVTHAQFIELSNNGQLAQLLTRLHHLPASGYRLDLRAQLIRYAGQIDTKRLSPSWLRLHQHFQRRSPPQPVKLAPLHMDIHPGNLLATPSGLKLIDWEYAADGDIALDIAALFRGNGWSAPQQQAFLQHYCLNEQGYPDIDRLSRQIQRWVPWVDYLMLMWFEVRWQQTGD
- protein production: failed

Sequence: MRAALTGGGLVLAYTAVISSADAITKLIAQGYAAPQLYAISGLIVAAISLAAARRNRARALKTVCPRAMALRALATVVASLCFFHTFRLLPFADVFVFIGLMPIMAALMSGLMLDEHARPAAWAALVAGFVGVLCLMPGGIGAIGAGHLWALGGVVTGTFSLILSRYIGRYESNALAQVFYPNLALGLSMAAALPFVWVPMPMLDLAWVGAYAALLFLARWLLVIALRLLAAYVVTPLLNLQFVWMVALGALAFGEWPAPMTWLGAAIVMVSGLYLIWDQMTPTTREQEELSLRTDP
- protein production: failed

Sequence: MELLKIDCLGKSLRLEGSLAGWQLLFWDNNLVSQKAASVDNGGLKVHQFELTQHHSQLASDSGEAQVLENKILVRLETDVVWQPFRFDYRLLVDEEVIAQGTRTEKDIERQMPEIPVTAPQKFSFVGLASLGFKLLKSAKVIKVVLAGASVAAYSWLFSFQFALALIACLVFHEYGHIRAMKYFGMKTKGIYLIPFMGGLALSDEKINTRWQDVVISIMGPTFGLLMSVGSLIAYHFTDNIFFAGLAAFNALLNLFNLLPILPLDGGHILKSISFSMNSIMGLIACVIGAAFGVYISYTLGLALLGFLLLIGSLEIVFEWRSRHQSHLLPLDRYGQIFSTIWYLATVAALVGIIWHLAGTGDDMLSLPLQILRS
- protein production: failed

Sequence: MVRETYALLTGLFVVILGSALIGIALVLGDYGTERDVYVVSTQGAVSGLNPESLVIFRGVRAGKVASISFAPHDPRTILVRIEVDKGLPITRGTYATLRVQPLTGLAQIDLSDEGNDPEPLRTDPRNPANIPLRPSLLDKLTGSGSDILTQIAQLTSRLNALLDDGNRQRIAHTLESLDTAADELVRLERYIEEGLERIPILDGRLRQALADHSAMARDVRETSRQVRALSESAQKVVDIGAAASDTLIRSRLPELDALIDDAAHTAASLRRLSKTLERDPQTLLLGPAPGLPGPGEPGFQEPK
- protein production: failed

Sequence: MLIATFFFTSHFSRAKQPMWYNGLLDLSVWQVIAVTLAMTHVTIVGVTVYLHRYSAHRSLELNAGLKHFFRFWLWLTTAQNTREWTAIHRKHHAKCETVDDPHSPVVKGLSTVLRKGAELYREEAQNQDTLRIYGKNCPEDWIERNLYSRYKMLGIVLMAVIDLALFGAIGITVWAIQMMWIPFWAAGVVNGLGHAVGYRNFECRDAATNLVPWGIVIGGEELHNNHHTYPNSAKLSVKPWEFDMGWAWIKLFSFLRLAKVQRVAPIAHRVEGKGHIDMDTAMAILNNRFQIMAQYRKLVIAPLVTQELAKADESVRHQFRRAKRLLSRETSLLDDKHHLRIQTMLEHSHALKVIYEKRLALQQIWVKTSSNGHDMLSAMKEWIHEAEASGIQSLREFADQLKTYSLRPVHA
- protein production: failed

Sequence: MKYSLCTISFRHQLISFTDIVQFAYENGFEGIELWGTHAQNLYMQEYETTERELNCLKDKTLEITMISDYLDISLSADFEKTIEKCEQLAILANWFKTNKIRTFAGQKGSADFSQQERQEYVNRIRMICELFAQHNMYVLLETHPNTLTDTLPSTLELLGEVDHPNLKINLDFLHIWESGADPVDSFQQLRPWIQHYHFKNISSADYLHVFEPNNVYAAAGNRTGMVPLFEGIVNYDEIIQEVRDTDHFASLEWFGHNAKDILKAEMKVLTNRNLEVVTS
- protein production: not failed

Sequence: MTKLEQIQQWTAQHHASMTYLSNPKTIEYLTGFGSDPIERVLALVVFPDQDPFIFAPALEVEVIKETGWQFPVIGYLDHENPWAMIADQVKQRHVNPEHVAIEKGQLQVARMEALAAQFSAPSFDLDITSFIEHMR
- protein production: not failed

Sequence: YAYSASLRVRQLGKPFMDEFSRRTNTTVSLTCRDRLSMIHVDSSRPPEVASLRMEPGLRLPLATSAAGRAYLAATPKIERDHLLGEVAKKLGDEWPALEKSLEDSFREYEEFGFCLSLGEWDRNVNGAGVPLRLADGSIMALTCGAPSFQLSSEKLESSLAHQLVMLARDLESLGV
- protein production: failed

Sequence: MKTFIIGISGVTNSGKTTLAKNLQKHLPNCSVISQDDFFKPESEIETDKNGFLQYDVLEALNMEKMMSAISCWMESARHSVVSTDQESAEEIPILIIEGFLLFNYKPLDTIWNRSYFLTIPYEECKRRRSTRVYQPPDSPGYFDGHVWPMYLKYRQEMQDITWEVVYLDGTKSEEDLFLQVYEDLIQELAKQKCLQVTA
- protein production: failed

Sequence: MHSTLLRTALLTAALGSFSHTATAEGVMVHLFQWKFNDIANECETVLGPKGFGGVQITPPAEHKQGSQVWWTVYQPVSFKNFNSFGGSEAELRSMIARCNAAGVKVYADAVFNQLASGSGTATGGGSYNAGQYQYPQFGYNDFHHSGDITNYGDSNNVWNGALYGMPDLNTGSPYVQDQIATYMKTLLGWGVAGFRIDAAKHMAPTDVKAILDKAGSPKAYLEVIGAGGESPDIQPGRYTYIDTVTDFKYGTDLAANFNGQIKNLKTLGESWGLLPSAKAFVFVVNHDRERGHGGGGMLTFMSGARYDLANTFMIAWPYGWKQVMSGYRFENMSTYETDKGAPGSTPCTDSQWNCEQRRPTIMNMALFHNRTEGQPVSNWWDNGNNQIAFGRGDKGFVAINNESGSLVASLQTALPAGEYCNLLGGNDYCSGGYVTVDGSGKASLNVPGMKAAAIIAGCTKASPCGGSALPGTKFSSMNLRGTHNAWGNTPMTVDANRVWSATLTLTGNGDATGAQRFKFDVFGNWAENYGDNEGDGIADKGSSKDILVSGAGSYRITLNESDLRYTVTPLTSNQAPVAALSPKTLSVKAGESVVFDASASHDDGGVVSYSWSSGGTAATETVRFDTPGTYTVTVTVTDAEGLTASASATVTVTDDNGTYTSVLPTLNFRGTPNAWGSLAMTLVADNQWEALVTFNGQANQRFKFDVKGDWSKNYGDTNKDGVAELAGSDILTSVTGQYRVRFNDQTLQYSLTPVSVGYAKNFASLNIRGTTNNWGSTPMSLVGDHLWQASVTFTGSGDGNGGQRFKFDVKGDWTQNYGDTNRDGVAEQAGADITTALVGVYVVRFNDQTLAYSLNAQ
- protein production: failed

Sequence: MIIETERLLLRPFNEQDVDALYLMNSNPAMLKYIPTAPFTDREQARELFHNVILQDYQQRGFGRWAVEHKADNRVIGFCGPKFIPEFNEVEIGYRYFPEYWGKGIGTEAAEAALSVFPQFGIKQTIALILEGNLGSETVAKRVGMYWREHSEFMGHKINVYAKIL
- protein production: failed

Sequence: MNRISVVILNWNGCEMLRSFLPSVLRYSEAEGVEVCVADNGSTDQSVEMLRREFPSVRRILLDGNHGFADGYNLALRQVEAEYVVLLNSDVEVTGQWLQPMAAYLDAHPEVAACQPKIRSWRQKEWFEYAGAAGGFIDRYGYPFCRGRVMGVVEADRGQYDTVLPIFWATGAAMFIRLADYREAGGLDGRFFAHMEEIDLCWRLRARGRGIVCIPQSVVYHVGGATLKKENPHKTFLNFRNNLVMLYKNLPDRELAGVMRVRCWLDYIAAATFALKGQPANAKAVVRARREFKLLRDSFRDARAENLRKTSSHFIPERIKSSILVQFYVKGRKFFSQLSDLKG
- protein production: failed

Sequence: LRSPRLYTHRLILRPWLVQDRARFAELNADPLVMEFFPSCLDRAQSDALLRRIDAHFAEHGFGWWALQVKGGDPFIGYVGLEVVDFDAPFVPAVAIGWRLAAEHWAEGFAHEAAEAALSYAFDTLGLDQVVAFTVPANENSLGLMERLGMHRDPTDDFEHPDLPPGHRLRHHVLYRLTREDWLRR
- protein production: not failed

Sequence: MQVIKQKLTATCAQLTGYLHQPDTNAHQTNLPAIIIVPGGSYTHIPVAQAESLAMAFAGHGYQAFYLEYTLLTDQQPLGLAPVLDLGRAVNLLRQHAAEWHIDPQQITPAGFSVGGHIVALYNDYWATRVATELNVTPAMLKPNNVVLGYPVISPLLGFPKDDATLATWTPTPNELAADQHVNSDNQPTFIWTTADDPIVPATNTLAYATALATAKIPYELHVFKHGPHGLALANAQTAWKPDANQPHVAHWLTLALEWLADNR
- protein production: not failed

Sequence: MKKILALILIIYSSSVFSHFSHFEPRIIHLYQDNQDTIILMRMPLPLILLDENWKGIDSKQNIPYTNKVNNSGYLIDPEKITKNLDDFKKSITPGYTIKKNGVVQNYHIESINIFNSDDRKPFSSLKTAEENFTSDVTIRPSATKLFDAGIDIKLRISNTSVINDDISISSILGDKFNAINKLANIINLHRDIANESVTTTLGILDYSSTHLPSMTQQLINGFSDGFIHILIGLDHVLFVLLLFYSAASFLKLLSLATAFTFGHSFSLFFGDNIAIASPIFIPGIELLIALTIAFTAIALLLKKAQHLGTTPLLVIGVIHGFGFSFVFNELEKEGAQTSITNLLSFNFGIEAGQLFIYALAFTMTILIKKQTVLVKKLPYYVSVCALVISAYWVVTRSMPLFDYIVI
- protein production: failed

Sequence: MVGINTDTENISELLKTYWSIQRISAGYADQNAASLGLTIQQLAMINVIYSTPGISVADLTKRLIITGSSAAANVDGLISLGLVVKLNKTIPNDSMDLTLKLSKKGEDLSKRSTANAFMYKAMMKVFENLTENEIEELIRLNKKVETLLKKSK
- protein production: not failed
